Source: patent US20220227882A1 (TRUSTEES OF TUFTS COLLEGE, published 2022)

Tests used:
G445A = target: T1, G445A (Homo sapiens, UniProt P78325); experiment: high-throughput flow cytometry, HEK293 cells with mutant ADAM8, high stringency; range in parentheses; dotted box
T1 construct: expressed on HEK293 cells; also called human ADAM8 point mutant G445A
T1 sequence (ADAM8, looked up): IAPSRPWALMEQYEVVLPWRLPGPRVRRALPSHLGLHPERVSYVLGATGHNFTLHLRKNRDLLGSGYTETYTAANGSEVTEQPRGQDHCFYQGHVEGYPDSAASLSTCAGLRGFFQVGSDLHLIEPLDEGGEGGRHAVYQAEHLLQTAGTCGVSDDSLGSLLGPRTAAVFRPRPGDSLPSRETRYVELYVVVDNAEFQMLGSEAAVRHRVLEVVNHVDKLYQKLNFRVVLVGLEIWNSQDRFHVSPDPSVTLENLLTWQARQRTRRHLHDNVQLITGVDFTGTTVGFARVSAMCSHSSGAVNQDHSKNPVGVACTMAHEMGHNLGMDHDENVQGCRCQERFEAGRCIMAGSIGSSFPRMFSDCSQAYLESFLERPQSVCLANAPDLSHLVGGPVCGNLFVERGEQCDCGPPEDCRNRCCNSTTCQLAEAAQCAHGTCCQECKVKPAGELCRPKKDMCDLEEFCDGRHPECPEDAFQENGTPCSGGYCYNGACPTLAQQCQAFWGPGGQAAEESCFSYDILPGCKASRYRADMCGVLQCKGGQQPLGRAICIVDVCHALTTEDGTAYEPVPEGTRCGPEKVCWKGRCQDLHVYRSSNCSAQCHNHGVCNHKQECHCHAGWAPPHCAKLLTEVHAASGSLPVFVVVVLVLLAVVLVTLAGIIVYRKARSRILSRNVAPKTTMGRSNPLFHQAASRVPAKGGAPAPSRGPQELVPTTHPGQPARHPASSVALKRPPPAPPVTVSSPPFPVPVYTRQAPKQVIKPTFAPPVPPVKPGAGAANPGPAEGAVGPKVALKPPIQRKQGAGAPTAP
Experimental: (§1) A variety of experimental parameters were optimized for high-throughput flow cytometry including blocking buffer, and primary and secondary antibody concentrations, to identify the optimal conditions for screening. Through these studies ADP2 and ADP13 were determined to be high affinity binding antibodies.
(§2) Thus, for these studies antigen-binding fragments (Fabs) of ADP2 and ADP13, which bind with lower affinity than the full antibody, were generated. In addition, higher binding stringency conditions were tested, such as increased pH, salinity, and temperature, and/or increased washing, to weaken binding sufficiently to allow identification of critical binding residues in flow cytometry. The final experimental flow cytometry conditions were: primary antibody incubation with ADP2 Fab (0.50 μg/ml), ADP13 Fab (5.00 μg/ml) and Control Ab (0.16 μg/ml) for 60 minutes in flow cytometry buffer containing 10% goat serum in PBS (Ca²⁺ and Mg²⁺ free). […] Samples were washed three times after primary antibody incubation and twice after secondary antibody incubation with PBS (Ca²⁺ and Mg′ free). Next, HEK293 cells expressing WT or mutated ADAM8 proteins or EV DNA were incubated with ADP2 or ADP13 Fabs or Control Ab at their optimal concentrations. Fab binding was detected using Alexa Fluor 488-conjugated secondary antibodies and mean cellular fluorescence determined using the Intellicyt iQue flow cytometry platform. […] This counter-screen strategy facilitates the exclusion of mutants that are locally misfolded or that have an expression defect. Binding of each test Fab to each mutant clone in the alanine scanning library was determined, in duplicate, by high-throughput flow cytometry.

R431A = target: T2, R431A (Homo sapiens, UniProt P78325); experiment: as above
T2 construct: expressed on HEK293 cells; also called human ADAM8 point mutant R431A
T2 sequence (ADAM8, looked up): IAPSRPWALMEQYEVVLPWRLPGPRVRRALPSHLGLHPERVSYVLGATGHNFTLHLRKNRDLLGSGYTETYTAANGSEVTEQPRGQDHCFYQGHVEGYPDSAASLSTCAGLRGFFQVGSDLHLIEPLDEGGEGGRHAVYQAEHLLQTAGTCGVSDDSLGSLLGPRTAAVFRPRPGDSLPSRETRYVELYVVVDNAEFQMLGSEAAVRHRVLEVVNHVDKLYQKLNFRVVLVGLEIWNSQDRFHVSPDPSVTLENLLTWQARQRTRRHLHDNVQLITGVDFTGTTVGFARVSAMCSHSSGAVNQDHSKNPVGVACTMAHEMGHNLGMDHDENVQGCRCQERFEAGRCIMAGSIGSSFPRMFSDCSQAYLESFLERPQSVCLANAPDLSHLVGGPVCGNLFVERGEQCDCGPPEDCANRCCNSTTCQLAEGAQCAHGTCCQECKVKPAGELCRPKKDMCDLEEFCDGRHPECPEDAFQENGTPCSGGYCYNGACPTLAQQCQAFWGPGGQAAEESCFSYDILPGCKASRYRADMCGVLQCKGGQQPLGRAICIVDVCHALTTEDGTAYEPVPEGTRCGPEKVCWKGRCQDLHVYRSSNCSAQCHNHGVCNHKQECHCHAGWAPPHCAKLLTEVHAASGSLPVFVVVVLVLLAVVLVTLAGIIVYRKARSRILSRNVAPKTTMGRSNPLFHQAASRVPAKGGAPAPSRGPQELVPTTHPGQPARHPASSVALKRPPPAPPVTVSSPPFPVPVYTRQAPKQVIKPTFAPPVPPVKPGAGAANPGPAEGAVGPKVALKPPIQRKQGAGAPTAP
Experimental: as §1, §2

Binding Reactivity (% WT) (G445A): 30.7 % WT | Binding Reactivity (% WT) (R431A): 26.2 % WT
B1: ADP2 Fab (Fab, V domains shown)
VH: EVKLVESGGGLVQPGGSLSLSCAASGFSFPDYYMSWVRQPPGKALEWLGFIRDSANGYTTEYIASVKGRFTFSRDNSQSILYLQMNALRAEDSATYYCARYSRYYGMDYWGQGTSVTVSS
VL: SIVMTQTPKILLVSAGDRVTITCKASQTVNYDVAWYQQKPGQSPKPVIYFASNRYTGVPDRFTGSGFGTDFTFTISTVQAEDLAVYFCQQDYSAPWTFGGGTKLEIK
